Measurements as given in US20250163137A1 (UNI PHARMA, published 2025).

Assays:
[1] = target: T1, canine FDP (fibrin-fibrinogen degradation products) (canine); test: kinetic analysis, 1:1 binding fit (RU read-out; instrument not named)
T1 construct: A heterogeneous mixture

[2] = target: T1, canine FDP (fibrin-fibrinogen …); test: affinity test (RU read-out; instrument not named)

T1 sequence (Q9NRC9 whole entry): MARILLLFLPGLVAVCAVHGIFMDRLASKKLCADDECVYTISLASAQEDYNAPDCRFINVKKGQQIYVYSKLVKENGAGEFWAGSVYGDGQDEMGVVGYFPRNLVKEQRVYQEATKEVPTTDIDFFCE

Kd [1]: 55.2 nM | koff [1]: 0.0026 s⁻¹ | kon [1]: 47100 M⁻¹ s⁻¹ | Kd [2]: 5030 nM
B1: mAb 14G12-5 (antibody, V domains shown)
VH: EVQLVESGGGLVKPGGSLKLSCAASGFAFNAYDMSWVRQTPEKRLEWVAYISSSGDYTYYPDTVKGRFTVSRDNAKSTLYLHMGSLKSEDTAMYYCAVYYHYDEGLDYWGQGTALTVSS
VL: QIVLIQSPAIMSASPGEKVTMTCSASSSVNYMHWYQQKSGTSPKRWIYDTSKLASGVPARFSGSGSGTSYSLTISSMEAEDAATYYCQQWSSNPPTFGGGTKLEIKR
notes: also called 14G12-5 mAb; recombinant antibody 14G12-5
